Kd, koff and kon data for 1 molecule are collected here from PMC13541299.

This assay addresses biotinylated polymerization-blocked yeast αβ-tubulin, LR1 (β: T175R, V179R) (S. cerevisiae) (UniProt P09733). In words: BLI; biotinylated polymerization-blocked tubulin immobilised on Streptavidin (SA) biosensors (OctetR8), dipped into TOG2 at 2.3 to 200 nM; 100 mM PIPES pH 6.9, 10 mM NaCl, 1 mM MgCl2, 1 mM EGTA, 1 mM GTP, 0.1% BSA, 0.005% Triton X-100; association 300 s, dissociation 300 s; 1:1 model; steady-state amplitudes and global kinetic fit.

Values joined by “and” are separate entries in the source; they are usually repeats but may differ in a detail not shown here. Equal values may be shown once.

B1: Stu2-TOG2 (318–560) (domain or fragment)
chain: MLPEETILDKLPKDFQERITSSKWKDRVEALEEFWDSVLSQTKKLKSTSQNYSNLLGIYGHIIQKDANIQAVALAAQSVELICDKLKTPGFSKDYVSLVFTPLLDRTKEKKPSVIEAIRKALLTICKYYDPLASSGRNEDMLKDILEHMKHKTPQIRMECTQLFNASMKEEKDGYSTLQRYLKDEVVPIVIQIVNDTQPAIRTIGFESFAILIKIFGMNTFVKTLEHLDNLKRKKIEETVKTL
Take B1: the Kd is 8.9 nM and 9.6 nM; the koff is 0.03 s⁻¹; the kon is 3.2e+06 M⁻¹ s⁻¹.
